Earlier results, collected in PMC11591972.

Target: Vm24 (Vaejovis mexicanus smithi) (UniProt P0DJ31)
Chain of UniProt P0DJ31 (P0DJ31 whole entry): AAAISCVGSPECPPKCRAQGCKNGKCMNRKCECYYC

Kv1.3 (from UniProt P22001)
Kd: 3 pM
